Experimental data reported in patent publication EP4810516A1.

Biological target: γ9δ2 TCR on human γ9δ2 T cells (human) (UniProt Q99603)
Assay: FACS, serially diluted antibody on γ9δ2 T cells, anti-human Fc secondary

γ9δ2 TCR on human γ9δ2 T cells (human), sequence (Q99603 21-122, stated change not applied, chain 1 of 2): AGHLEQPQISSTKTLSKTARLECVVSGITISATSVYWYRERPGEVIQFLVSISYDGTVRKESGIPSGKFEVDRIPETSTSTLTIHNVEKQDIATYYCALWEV
γ9δ2 TCR on human γ9δ2 T cells (human), sequence (A0JD36 20-115, stated change not applied, chain 2 of 2, further chain): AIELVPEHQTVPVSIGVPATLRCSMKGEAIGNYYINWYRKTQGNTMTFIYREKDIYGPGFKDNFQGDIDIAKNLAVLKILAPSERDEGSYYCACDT

B1: SDP01369 (antibody, human IgG1, kappa, V domains shown)
VH: EVQLVESGGGLVKPGGSLRLSCAASGFTFSSYAMSWVRQAPGKRLEWVASISSGGSTYYPDSVKGRFTISRDNAKNSLYLQMNSLRAEDTAVYYCARDGYPPFDYWGQGTTVTVSS
VL: DIQMTQSPSSVSASVGDRVTITCKASQNVGTNVAWYQQKPGKAPKALIYSASYRYSGVPSRFSGSGSGTDFTLTISSLQPEDFATYYCQQYNSFPLTFGQGTKLEIKR
B1 was tested, and the EC50 was 1.74 nM and the Max MFI was 15000 MFI.
